From publication PMC6719446 (The Journal of Cell Biology, 2019)

Target: T1, Purified ASB11 bound on anti-Myc beads (human (ASB11 cDNA amplified from 293T …, UniProt Q8WXH4 1-323))
T1 sequence (looked up): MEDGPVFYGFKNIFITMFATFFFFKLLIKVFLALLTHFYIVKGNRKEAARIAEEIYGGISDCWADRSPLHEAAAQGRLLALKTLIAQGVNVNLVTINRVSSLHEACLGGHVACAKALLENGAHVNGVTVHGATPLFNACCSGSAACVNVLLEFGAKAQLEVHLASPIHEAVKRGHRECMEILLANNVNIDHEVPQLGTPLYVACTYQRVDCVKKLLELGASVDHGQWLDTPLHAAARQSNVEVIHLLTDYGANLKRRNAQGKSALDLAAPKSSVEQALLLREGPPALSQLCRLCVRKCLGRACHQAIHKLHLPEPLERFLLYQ
Experiment: pull-down

B1: 3xFlag-BIK (natural protein, UniProt Q13323 1-160, looked up)
chain: MSEVRPLSRDILMETLLYEQLLEPPTMEVLGMTDSEEDLDPMEDFDSLECMEGSDALALRLACIGDEMDVSLRAPRLAQLSEVAMHSLGLAFIYDQTEDIRDVLRSFMDGFTTLKENIMRFWRSPNPGSWVSCEQVLLALLLLLALLLPLLSGGLHLLLK
  binding result: binds
